Experimental data as given in patent US20240409620A1 (CENTER FOR EXCELLENCE IN MOLECULAR CELL SCIENCE CHINESE …, published 2024).

Tests used:
[1] = target: RSV/A/A2 fusion protein F on the virus (respiratory syncytial virus RSV/A/A2, UniProt P03420 26-574); experiment: cell-based or functional assay
[2] = target: T1, RSV/B/B9320 pre-fusion F protein (respiratory syncytial virus RSV/B/B9320); experiment: BLI (Octet RED96), antibody captured on AHC sensor; reference MEDI8897
T1 construct: also called pre-F of RSV type B; recombinant DS-Cav1

[3] = target: T2, RSV/A/A2 pre-fusion F protein (respiratory syncytial virus RSV/A/A2, UniProt P03420 26-109); experiment: as above
T2 construct: also called RSV A2 pre-fusion F protein; pre-F of RSV type A

[4] = target: T1, RSV/B/B9320 pre-fusion F protein; experiment: BLI (Octet RED96), antibody captured on AHC sensor; reference Palivizumab
[5] = target: T2, RSV/A/A2 pre-fusion F protein; experiment: as above

B1: 4F1En1 (VH-S75R) (antibody, V domains shown)
VH: QVQLVESGGGVVQPGRSLRLSCAASGFSFYSYSVHWVRQAPGKGLEWVADVVYDGNHQHYTDSVKGRFTISRDTRKNTVYLQMGSLRAEDTALYYCTARSLVITLAGAGRDDYWGQGTTVTVSS
VL: DIVMTQSPLSLPVTPGEPASISCRSSQSLLHSNGYTYLDWYLQKPGQSPQLLIFLGSSRASGVPDRFSGSGSGTDFTLKISRVEAEDVGVYYCVQDLQTSLTFGGGTKLEIKR
notes: It is a human IgG captured through Fc
[1]
  IC50 against RSV/A2, fold lower than palivizumab: 62 fold
  neutralization potency for RSV/A/A2 strain, fold against 4F1-WT: 3 times
[2]
  fold higher binding affinity compared to MEDI8897: ≥ 100 fold
[3]
  fold higher affinity compared to MEDI8897: ≥ 10 fold
[4]
  fold higher binding affinity compared to PVZ: ≥ 100 fold
[5]
  fold higher affinity compared to PVZ: ≥ 10 fold
